Experimental data reported in the supplement of paper PMC9112550, “Optimization of the antimicrobial peptide Bac7 by deep mutational scanning” (BMC Biology, 2022).

test system: Escherichia coli TOP10; test: shrunken log2 fold change of peptide-encoding DNA abundance (4.5 h post-induction vs induction); higher = less antimicrobial activity (less host growth inhibition); details: time post-induction: 4.5 h; library: site-saturation at positions 5, 18, 19, 20
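Also: peptides expressed intracellularly from a pBAD plasmid library in pooled LB shake-flask culture, induced with 0.3% L-arabinose, DNA abundance read by NGS, three biological replicates, DESeq2 with apeglm shrinkage.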

Sequence | shrunken log2 fold change
RRIRVRPPRLPRPRPRPLFNPRP | -0.465
RRIRVRPPRLPRPRPRPLGFPRP | 0.196
RRIRVRPPRLPRPRPRPLGIPRP | -0.105
RRIRVRPPRLPRPRPRPLKWPRP | -0.235
RRIRVRPPRLPRPRPRPLLTPRP | -0.0362
RRIRVRPPRLPRPRPRPLMMPRP | -0.331
RRIRVRPPRLPRPRPRPLMPPRP | 0.0146
RRIRVRPPRLPRPRPRPLMSPRP | 0.0187
RRIRVRPPRLPRPRPRPLPNPRP | -0.0957
RRIRVRPPRLPRPRPRPLPQPRP | 0.216
RRIRVRPPRLPRPRPRPLQSPRP | 0.12
RRIRVRPPRLPRPRPRPLRHPRP | 0.288
RRIRVRPPRLPRPRPRPLSFPRP | -0.426
RRIRVRPPRLPRPRPRPLTLPRP | -0.416
RRIRVRPPRLPRPRPRPLTMPRP | -0.319
RRIRVRPPRLPRPRPRPLTQPRP | 0.149
RRIRVRPPRLPRPRPRPLTRPRP | 0.196
RRIRVRPPRLPRPRPRPLVCPRP | -0.253
RRIRVRPPRLPRPRPRPLVRPRP | 0.0251
RRIRVRPPRLPRPRPRPLWFPRP | 0.125
RRIRVRPPRLPRPRPRPLWMPRP | -0.523
RRIRVRPPRLPRPRPRPLWVPRP | -0.147
RRIRVRPPRLPRPRPRPLYIPRP | -0.555
RRIRVRPPRLPRPRPRPLYRPRP | -0.047
RRIRVRPPRLPRPRPRPMACPRP | -0.147

Sequence | shrunken log2 fold change
RRIRVRPPRLPRPRPRPMCSPRP | -0.237
RRIRVRPPRLPRPRPRPMDSPRP | -0.134
RRIRVRPPRLPRPRPRPMEWPRP | -0.125
RRIRVRPPRLPRPRPRPMEYPRP | -0.0697
RRIRVRPPRLPRPRPRPMFAPRP | -0.0323
RRIRVRPPRLPRPRPRPMFQPRP | -0.267
RRIRVRPPRLPRPRPRPMGLPRP | -0.00681
RRIRVRPPRLPRPRPRPMHAPRP | -0.00559
RRIRVRPPRLPRPRPRPMHWPRP | 0.253
RRIRVRPPRLPRPRPRPMICPRP | -0.0606
RRIRVRPPRLPRPRPRPMIHPRP | -0.465
RRIRVRPPRLPRPRPRPMINPRP | -0.257
RRIRVRPPRLPRPRPRPMKMPRP | -0.0573
RRIRVRPPRLPRPRPRPMKRPRP | 0.0336
RRIRVRPPRLPRPRPRPMNKPRP | -0.403
RRIRVRPPRLPRPRPRPMRDPRP | 0.0208
RRIRVRPPRLPRPRPRPMRHPRP | -0.00914
RRIRVRPPRLPRPRPRPMSGPRP | -0.0469
RRIRVRPPRLPRPRPRPMSVPRP | 0.0581
RRIRVRPPRLPRPRPRPMTCPRP | -0.141
RRIRVRPPRLPRPRPRPMTGPRP | -0.0967
RRIRVRPPRLPRPRPRPMVCPRP | -0.062
RRIRVRPPRLPRPRPRPMVKPRP | -0.166
RRIRVRPPRLPRPRPRPMVNPRP | -0.158
RRIRVRPPRLPRPRPRPMVWPRP | 0.117

Sequence | shrunken log2 fold change
RRIRVRPPRLPRPRPRPMWHPRP | 0.0166
RRIRVRPPRLPRPRPRPMWLPRP | 0.0511
RRIRVRPPRLPRPRPRPMYAPRP | -0.17
RRIRVRPPRLPRPRPRPNAPPRP | 0.379
RRIRVRPPRLPRPRPRPNAWPRP | 0.0914
RRIRVRPPRLPRPRPRPNCIPRP | -0.213
RRIRVRPPRLPRPRPRPNENPRP | -0.349
RRIRVRPPRLPRPRPRPNERPRP | 0.0435
RRIRVRPPRLPRPRPRPNFDPRP | -0.0598
RRIRVRPPRLPRPRPRPNFRPRP | 0.19
RRIRVRPPRLPRPRPRPNGGPRP | 0.0985
RRIRVRPPRLPRPRPRPNGSPRP | 0.00532
RRIRVRPPRLPRPRPRPNIDPRP | -0.258
RRIRVRPPRLPRPRPRPNMKPRP | -0.524
RRIRVRPPRLPRPRPRPNMYPRP | 0.0145
RRIRVRPPRLPRPRPRPNNGPRP | -0.497
RRIRVRPPRLPRPRPRPNNMPRP | -0.537
RRIRVRPPRLPRPRPRPNPVPRP | -0.242
RRIRVRPPRLPRPRPRPNQCPRP | -0.264
RRIRVRPPRLPRPRPRPNQEPRP | -0.176
RRIRVRPPRLPRPRPRPNRQPRP | -0.326
RRIRVRPPRLPRPRPRPNRTPRP | 0.0905
RRIRVRPPRLPRPRPRPNSTPRP | -0.515
RRIRVRPPRLPRPRPRPNSYPRP | -0.309
RRIRVRPPRLPRPRPRPNVFPRP | 0.0413
